Biological target: murine dimeric IgA (mouse) (UniProt P01592)
Assay: cell-based or functional assay

UniProt P01592, sequence (P01592 22-159): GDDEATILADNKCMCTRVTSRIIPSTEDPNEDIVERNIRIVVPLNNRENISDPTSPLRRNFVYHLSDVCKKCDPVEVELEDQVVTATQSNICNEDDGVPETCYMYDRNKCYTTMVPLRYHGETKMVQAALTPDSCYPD

Substance: murine polymeric immunoglobulin receptor (from UniProt O70570 19-771)
- total IgA concentration in milk by ELISA, transgenic line 3644 (270-fold increased SC); control mean 292 mg/ml: 593
- total IgA level in milk by ELISA, transgenic line 3646 (60-fold elevated SC) against control mice: 1.5 times

Source: US6924412
